Patent publication US20180057604A1 (Genentech, published 2018)
Changes are numbered by the printed parent chain. Names may count otherwise.

T1: cyno TfR extracellular domain (analogous construct to human TfR ecd) (cynomolgus monkey, UniProt Q5RDH6 87-760 (Pongo abelii entry))
T1 construct: also called cynoTfR ecd
T1 chain: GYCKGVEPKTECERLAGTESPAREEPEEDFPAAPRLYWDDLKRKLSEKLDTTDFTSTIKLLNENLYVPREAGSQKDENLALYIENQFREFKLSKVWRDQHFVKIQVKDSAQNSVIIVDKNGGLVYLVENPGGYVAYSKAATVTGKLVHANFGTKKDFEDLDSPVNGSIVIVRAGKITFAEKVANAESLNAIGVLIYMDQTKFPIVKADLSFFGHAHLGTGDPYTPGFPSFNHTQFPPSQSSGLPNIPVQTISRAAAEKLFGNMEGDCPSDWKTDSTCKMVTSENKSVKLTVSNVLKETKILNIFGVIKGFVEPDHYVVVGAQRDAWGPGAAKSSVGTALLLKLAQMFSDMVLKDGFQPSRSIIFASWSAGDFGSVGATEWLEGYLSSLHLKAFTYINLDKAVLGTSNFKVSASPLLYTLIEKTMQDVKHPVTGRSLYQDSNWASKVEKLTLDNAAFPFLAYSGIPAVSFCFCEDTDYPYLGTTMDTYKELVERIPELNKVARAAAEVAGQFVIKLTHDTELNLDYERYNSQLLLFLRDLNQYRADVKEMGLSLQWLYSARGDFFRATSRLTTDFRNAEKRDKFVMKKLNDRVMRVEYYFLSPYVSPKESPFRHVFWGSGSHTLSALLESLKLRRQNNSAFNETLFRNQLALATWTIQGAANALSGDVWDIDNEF

B1: 8A2 (antibody, V domains shown)
VH: QVQLQQSGPELVRPGVSVKISCKGSGYTFTDYGMHWVKQSHAKSLEWIGVISPYSGRTNYNQNFKGKATMTVDKSSSTAYLELARLTSEDSAIYYCARGLSGNYVVDYWGQGTSVTVSS
VL: DIVLTQSPASLAVSLGQRATISCRASESVDSYGNSFMHWYQQKPGQPPKLLIYRASNLESGIPARFSGSGSRTDFTLTINPVEADDVATYYCQQSNEGPPTFGGGTKLEIK
notes: Mouse hybridoma antibody; also called clone 8A2
B2: 10D11 (antibody, V domains shown)
VH: QVQLQQSGPELVRPGVAVKISCKGSGYKFIDYGMHWVKQSHTKSLQWIGVISPYSGKTNYSQKFKGKATMTVDKSSSTAYMELARLTSEDSAIYYCARGLSGNFVMDFWGQGTSVTVSS
VL: B1 VL with N34P, Q94H, G98D, K107R
notes: Mouse hybridoma antibody; also called clone 10D11
B3: 13D4 (antibody, V domains shown)
VH: QVQLQQSGAELMKPGASVKISCKAAGYTFSNYWIEWVKQRPGHGLEWIGEILPGSGSTKYNEKFKGKATFTADTSSNTAYMQLSSLTSEDSAVYYCARRGGYGYDGEFAYWGQGTLVTVSA
VL: DIQMTQTTSSLSASLGDRVTINCRAGQDITNYLNWFQQKPDGTVKLLIYYTSRLHSGVPSRFSGSGSGTDYSLTITNLEQEDIATYFCQQANTLPYTFGGGTKLEIK
notes: Mouse hybridoma antibody; also called clone 13D4
B4: 1B12 (antibody, V domains shown)
VH: EVKLVESGGGLVQPGGFLKLSCATSGFTFSDYYMYWVRQTPEKRLEWVASISNGGDNTYYPDTVKGRFTISRDNAKNTLYLQMSRLKSEDTAMYYCARQGALYDGYYRGAMDYWGQGTSVTVSS
VL: QIVLTQSPAIMSASLGGRVTMTCTTSSSVPSSYFHWYQQKPGSSPKLWIYSTSNLASGVPARFSGSGSGTSYSLTISSMEAEDAATYYCHQYHRSPFTFGSGTKLEIK
notes: Mouse hybridoma antibody; also called clone 1B12
B5: 7G7 (antibody, V domains shown)
VH: QVQLQQPGSELVRPGASVKLSCKASGYTFTSYWMHWVKQRHGQGLEWIGNIYPGSGSTKYDERFKSKGTLTVDTSSSTAYMHLSSLTSEDSAVYYCTRGGYDSRAWFAYWGQGTLVTVSA
VL: DIVLTQSPASLAVSLGQRATISCRARQSVSTSSYSFMHWYRQKAGQPPKLLIKYASIQESGVPARFSGSGSGTDFTLNILPVEEEDTATYYCQHTWEIPFTFGSGTKLEIK
notes: Mouse hybridoma antibody; also called clone 7G7
B6: 16G4 (antibody, V domains shown)
VH: QVQLQQPGAELVKPGASVKLSCKASGYTFTSYWMHWVKQRPGQGLEWIGEINPSNGRTNYNETFKSKATLTVDKSSSTAYMQLSSLTSEDSAVYYCARGTRAYHYWGQGTSVTVSS
VL: DIQMTQSPASLSVSVGETVTITCRASDNIYSNLAWYQQKQGKSPQLLVYAVTNLADGVPSRFSGSGSGTQYSLKINSLQSEDFGSYYCQHFWGTPLTFGAGTKLELK
notes: Mouse hybridoma antibody; also called clone 16G4
B7: T94A (antibody, V domains shown)
VH: EVQLVQSGAEVKKPGASVKVSCKASGYTFTSYWMHWVRQAPGQRLEWIGEINPTNGRTNYIEKFKSRATLTVDKSASTAYMELSSLRSEDTAVYYCARGTRAYHYWGQGTMVTVSS
VL: DIQMTQSPSSLSASVGDRVTITCRASDNLYSNLAWYQQKPGKSPKLLVYDATNLADGVPSRFSGSGSGTDYTLTISSLQPEDFATYYCQHFWGAPLTFGQGTKVEIK
notes: also called 15G11.v5 T94A (CDR-L3) IgG
B8: T97A (antibody, V domains shown)
VH: B7 VH
VL: B7 VL with A94T, T97A
notes: also called 15G11.v5 T97A (CDR-L3) IgG

biological target: T2, human TfR extracellular domain with N-terminal His tag (human, UniProt P02786 89-760); experiment: SPR, IgG
T2 construct: Biotinylated in some assays; also called huTfR; HuTfR
T2 sequence (P02786 89-760 G142S): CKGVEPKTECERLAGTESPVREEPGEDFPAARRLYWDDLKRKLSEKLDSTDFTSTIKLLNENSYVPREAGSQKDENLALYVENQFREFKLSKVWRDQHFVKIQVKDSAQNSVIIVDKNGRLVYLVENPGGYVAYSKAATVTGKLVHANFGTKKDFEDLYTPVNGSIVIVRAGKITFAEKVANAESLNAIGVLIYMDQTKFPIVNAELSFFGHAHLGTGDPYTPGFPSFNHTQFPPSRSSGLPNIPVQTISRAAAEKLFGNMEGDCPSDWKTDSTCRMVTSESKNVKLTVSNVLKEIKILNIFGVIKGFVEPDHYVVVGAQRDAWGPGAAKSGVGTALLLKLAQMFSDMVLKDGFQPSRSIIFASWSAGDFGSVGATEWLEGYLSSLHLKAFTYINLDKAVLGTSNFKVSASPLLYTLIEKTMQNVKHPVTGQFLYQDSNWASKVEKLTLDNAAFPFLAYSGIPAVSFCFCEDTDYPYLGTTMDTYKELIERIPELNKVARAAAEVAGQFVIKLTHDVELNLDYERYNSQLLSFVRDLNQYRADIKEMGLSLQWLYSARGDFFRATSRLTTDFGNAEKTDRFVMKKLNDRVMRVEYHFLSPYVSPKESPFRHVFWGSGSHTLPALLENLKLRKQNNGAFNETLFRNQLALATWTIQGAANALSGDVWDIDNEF
Protocol: (§1) Antibody affinities were measured using surface plasmon resonance (“SPR”) (Biacore™, GE Healthcare). Anti-His antibody (Qiagen) was coupled onto four different flow cells of a BIACORE™ CM5 sensor chip (Biacore, Inc., Piscataway, N.J.) at between 6000 and 8000 RU. Immobilization was achieved by random coupling through amino groups using a protocol provided by the manufacturer. 10×HBS-P (Biacore, Inc., Piscataway, N.J.) was diluted in water and served as the dilution and running buffer. Purified human or cyno TfR was captured, followed by a 3-fold dilution series of IgG or Fab that was injected at a flow rate of 30 ml/min using the single cycle kinetics method. Affinity constants were determined using a simple 1:1 Langmuir binding model or using a steady state model when kₒₙ or koff was beyond the detection limit. The equilibrium dissociation constant (KD) was calculated as the ratio of association rate constant (kₒₙ) and dissociation rate constant (koff).

Row | Kd [nM] | Binder
1 | 0.179 | B1
2 | 2.08 | B2
3 | 9.5 | B3
4 | 2.03 | B4
5 | 45.7 | B5
6 | 3.4 | B6

Biological target: T1, cyno TfR extracellular domain …
Experiment: SPR, IgG
Protocol: as §1

Row | Kd [nM] | Binder
7 | 0.904 | B1
8 | 89.9 | B2
9 | 8.47 | B3
10 | 43.4 | B4
11 | 262 | B5
12 | 22.4 | B6

biological target: T2, human TfR extracellular domain with …; experiment: ELISA, IgG
Protocol: (§2) Affinity variants were generated by making individual alanine substitutions in CDR-L3 or CDR-H3 using standard techniques. These variants were screened as IgG by ELISA and SPR to identify positions important for binding to human and cyno TfR; the monovalent affinity of selected variants as Fab was also determined. […] Plates were washed with PBS/0.05% Tween 20 and blocked using Superblock blocking buffer in PBS (Thermo Scientific, Hudson, N.H.). Supernatants containing expressed IgG were diluted serially 1:5 and added to the plate for 1 h. […] Plates were washed with PBS/0.05% Tween 20 and 1:1000 diluted HRP-Goat-anti kappa (Southern Biotech) was added the plate and incubated for 1 h at room temperature. Plates were washed with PBS/0.05% Tween 20 and detected using TMB substrate (BioFX Laboratories, Owings Mills).

Row | EC50 [µg/mL] | Binder
13 | 0.0168 | B7
14 | 0.0134 | B8

Biological target: T1, cyno TfR extracellular domain …
Experiment: ELISA, IgG
Protocol: as §2

Row | EC50 [µg/mL] | Binder
15 | 0.0293 | B7
16 | 0.0157 | B8
